Measurements: patent US20110243928A1
Where “and” joins values, the source holds several entries; their conditions need not be identical. Equal entries are not always repeated.

How the values were obtained:
[1] = molecular target: Negative control 20 mer peptide (Mimotopes); experiment: 16 mer peptide ELISA control well, control antibody diluted 4-fold
[2] = molecular target: Positive control 20 mer peptide (Mimotopes); experiment: as above
[3] = molecular target: Negative control 20 mer peptide (Mimotopes); experiment: 16 mer peptide ELISA control well, control antibody diluted 16-fold
[4] = molecular target: Positive control 20 mer peptide (Mimotopes); experiment: as above
[5] = molecular target: Negative control 20 mer peptide (Mimotopes); experiment: 16 mer peptide ELISA control well, control antibody diluted 32-fold
[6] = molecular target: Positive control 20 mer peptide (Mimotopes); experiment: as above

## Control Ab (Supplied with Mimotopes custom order) (antibody)
[1]
  absorbance at 490 nm: 0.077 A490 and 0.072 A490
[2]
  absorbance at 490 nm: 1.5 A490 and 1.55 A490
[3]
  absorbance at 490 nm: 0.08 A490 and 0.082 A490
[4]
  absorbance at 490 nm: 1.2 A490 and 1.21 A490
[5]
  absorbance at 490 nm: 0.072 A490 and 0.103 A490
[6]
  absorbance at 490 nm: 0.739 A490 and 0.976 A490
